Source: publication PMC7806596, “Regulation of trehalase activity by multi-site phosphorylation and 14-3-3 interaction” (Scientific Reports, 2021)

Legend:
Bmh1 = Bmh1 (UniProt P29311); assay: anti-FLAG co-IP, anti-V5 blot; conditions: reference: wild type
[1] = biological target: full-length 3xFLAG-tagged Nth1^S83A (S. cerevisiae) (UniProt P32356); assay: co-IP; Nth1-3xFLAG precipitated with anti-FLAG M2 magnetic beads, Bmh1-V5 detected by blot; stationary phase cells recovered by dilution in 1% glucose minimal medium (5 min after glucose replenishment); 25 mM Tris-HCl pH 7.5, 150 mM NaCl, 5 mM CaCl2, 0.1% Triton X-100, 4 °C, 1 h
[2] = biological target: T1, Nth1-Strep phosphorylated in vitro with PKA and CyclinB-Cdk1 (S. cerevisiae, UniProt P32356 1-751, full phosphorylation by Cdk1 (site S66) and partial phosphorylation of the PKA sites by PKA (15 nM or 1.5 nM) in vitro); assay: pull-down; called co-IP by the paper; 6xHis-Bmh1 from BL21RP lysate loaded on Chelating Sepharose and washed, mixed 10 min with in vitro phosphorylated Nth1-Strep (200 ng per sample); washed with 25 mM Tris-HCl pH 7.4, 150 mM NaCl, 5 mM CaCl2; bound Nth1-Strep detected by blot (StrepMAB-Classic); conditions: both partners purified
T1 construct: neutral trehalase Nth1, S. cerevisiae, full length, expressed from pASK-Iba3; also called Nth1-Strep-tagged; source: E. coli BL21(DE3)RP, purified (Strep-Tactin II Superflow), phosphorylated in vitro with PKA and cyclin B-Cdk1
T1 sequence (looked up): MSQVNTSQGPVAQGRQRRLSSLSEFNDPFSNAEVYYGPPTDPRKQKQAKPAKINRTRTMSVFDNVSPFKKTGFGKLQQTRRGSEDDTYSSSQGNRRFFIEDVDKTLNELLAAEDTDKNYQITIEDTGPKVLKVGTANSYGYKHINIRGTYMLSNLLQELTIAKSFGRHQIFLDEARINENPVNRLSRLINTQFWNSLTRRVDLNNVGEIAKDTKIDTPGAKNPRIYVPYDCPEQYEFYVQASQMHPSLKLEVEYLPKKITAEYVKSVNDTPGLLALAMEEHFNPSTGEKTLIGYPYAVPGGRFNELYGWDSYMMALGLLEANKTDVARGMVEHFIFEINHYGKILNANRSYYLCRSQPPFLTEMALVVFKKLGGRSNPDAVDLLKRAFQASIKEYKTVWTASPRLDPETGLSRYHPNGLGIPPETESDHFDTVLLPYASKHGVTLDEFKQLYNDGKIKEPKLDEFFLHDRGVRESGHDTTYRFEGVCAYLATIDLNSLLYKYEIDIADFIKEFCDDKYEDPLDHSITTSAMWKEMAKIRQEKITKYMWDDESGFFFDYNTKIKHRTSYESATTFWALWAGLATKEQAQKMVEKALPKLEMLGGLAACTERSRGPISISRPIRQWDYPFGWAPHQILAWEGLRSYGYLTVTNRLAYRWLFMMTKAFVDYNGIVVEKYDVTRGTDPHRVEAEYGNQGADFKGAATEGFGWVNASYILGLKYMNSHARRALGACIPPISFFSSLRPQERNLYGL

[3] = biological target: T2, recombinant full-length 6xHis-tagged Nth1 phosphorylated in vitro with PKA (S. cerevisiae, UniProt P32356 1-751, fully phosphorylated with 3 nM PKA in vitro); assay: phosphatase shielding assay (Phos-tag autoradiograph and mass spectrometry); 1 µM 6xHis-Nth1 phosphorylated with 3 nM PKA in presence or absence of Bmh1 (5:1, Bmh1:Nth1); at 30 min PKA inhibitor and lambda phosphatase (90 U/µl, 1 mM MnCl2) added; conditions: both partners purified
T2 construct: neutral trehalase Nth1, S. cerevisiae, full length, expressed from pET28a; also called 6xHis-Nth1
T2 sequence (looked up): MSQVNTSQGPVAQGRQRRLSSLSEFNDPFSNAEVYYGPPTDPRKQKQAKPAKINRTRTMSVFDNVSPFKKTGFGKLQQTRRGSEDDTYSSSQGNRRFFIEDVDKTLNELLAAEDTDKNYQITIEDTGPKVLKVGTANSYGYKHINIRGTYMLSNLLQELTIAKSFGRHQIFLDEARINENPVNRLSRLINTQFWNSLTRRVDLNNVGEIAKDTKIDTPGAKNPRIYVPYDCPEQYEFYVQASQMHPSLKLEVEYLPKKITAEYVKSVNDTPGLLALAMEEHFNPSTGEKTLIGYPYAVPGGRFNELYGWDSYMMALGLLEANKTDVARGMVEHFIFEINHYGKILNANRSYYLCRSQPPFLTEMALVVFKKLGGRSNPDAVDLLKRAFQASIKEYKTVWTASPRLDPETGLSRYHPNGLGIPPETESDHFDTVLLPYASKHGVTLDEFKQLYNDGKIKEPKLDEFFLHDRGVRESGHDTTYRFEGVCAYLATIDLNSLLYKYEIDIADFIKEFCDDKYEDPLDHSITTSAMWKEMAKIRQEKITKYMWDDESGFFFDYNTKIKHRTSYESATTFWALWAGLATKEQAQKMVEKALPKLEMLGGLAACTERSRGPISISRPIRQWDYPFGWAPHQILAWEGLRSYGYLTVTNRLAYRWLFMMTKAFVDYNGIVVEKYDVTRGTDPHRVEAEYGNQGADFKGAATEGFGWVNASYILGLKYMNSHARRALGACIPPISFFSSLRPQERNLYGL

With Nth1 (from UniProt P32356) S60A the percent of reference (Bmh1; sites S60) was 30%.

Nth1 (from UniProt P32356) S66A was tested, and the percent of reference (Bmh1; sites S66) was 50%.

With “V5-tagged Bmh1 (from UniProt P29311 1-267) (natural protein)” the bound Bmh1, percent normalised to WT [1] was under 10%.

Nth1 (from UniProt P32356) S83A was tested, and the percent of reference (Bmh1; sites S83) was under 10%.

B1: recombinant full-length 6xHis-tagged Bmh1 (natural protein, S. cerevisiae, UniProt P29311 1-267, looked up)
chain: MSTSREDSVYLAKLAEQAERYEEMVENMKTVASSGQELSVEERNLLSVAYKNVIGARRASWRIVSSIEQKEESKEKSEHQVELICSYRSKIETELTKISDDILSVLDSHLIPSATTGESKVFYYKMKGDYHRYLAEFSSGDAREKATNASLEAYKTASEIATTELPPTHPIRLGLALNFSVFYYEIQNSPDKACHLAKQAFDDAIAELDTLSEESYKDSTLIMQLLRDNLTLWTSDMSESGQAEDQQQQQQHQQQQPPAAAEGEAPK
notes: 14-3-3 protein Bmh1, S. cerevisiae, full length, expressed from pET28a; also called 6xHis-Bmh1; Bhm1; source: E. coli BL21(DE3)RP
B1: binds [2]; binds [3].
